These results are taken from patent publication US20130122568.

Numbering of substitutions follows the chain as printed. Where only a bound is given, the exact number is not on record here.

Assay in all cases: cleavage_in_vitro
Series [1] addresses T1, PstI (Providencia stuartii 164) (UniProt P00640).
T1 sequence: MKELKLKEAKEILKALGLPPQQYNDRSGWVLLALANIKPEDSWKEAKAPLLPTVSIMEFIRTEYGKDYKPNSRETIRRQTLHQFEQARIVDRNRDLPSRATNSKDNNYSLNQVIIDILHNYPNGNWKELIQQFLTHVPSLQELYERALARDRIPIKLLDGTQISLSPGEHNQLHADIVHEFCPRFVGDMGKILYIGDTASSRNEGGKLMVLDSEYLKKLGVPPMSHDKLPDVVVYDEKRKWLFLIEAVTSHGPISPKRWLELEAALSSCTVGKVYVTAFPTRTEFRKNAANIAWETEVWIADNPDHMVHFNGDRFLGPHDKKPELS
To be noted: NEB3, 37 C.

The target in series [2] is EcoRI (Escherichia coli RY13) (UniProt P00642). The note with it: NEB3, 37 C.
Sequence of EcoRI (Escherichia coli RY13) (P00642 whole entry): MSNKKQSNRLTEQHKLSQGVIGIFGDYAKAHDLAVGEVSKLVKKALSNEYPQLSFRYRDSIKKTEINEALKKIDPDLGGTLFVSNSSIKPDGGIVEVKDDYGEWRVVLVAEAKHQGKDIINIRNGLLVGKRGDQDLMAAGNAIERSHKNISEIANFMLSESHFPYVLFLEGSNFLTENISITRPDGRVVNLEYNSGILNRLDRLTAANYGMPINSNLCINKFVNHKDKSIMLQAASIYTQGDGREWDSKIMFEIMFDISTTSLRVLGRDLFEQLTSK
The test system of series [3] is T2, SbfI-HF K251A (Streptomyces species Bf-61).
T2 sequence: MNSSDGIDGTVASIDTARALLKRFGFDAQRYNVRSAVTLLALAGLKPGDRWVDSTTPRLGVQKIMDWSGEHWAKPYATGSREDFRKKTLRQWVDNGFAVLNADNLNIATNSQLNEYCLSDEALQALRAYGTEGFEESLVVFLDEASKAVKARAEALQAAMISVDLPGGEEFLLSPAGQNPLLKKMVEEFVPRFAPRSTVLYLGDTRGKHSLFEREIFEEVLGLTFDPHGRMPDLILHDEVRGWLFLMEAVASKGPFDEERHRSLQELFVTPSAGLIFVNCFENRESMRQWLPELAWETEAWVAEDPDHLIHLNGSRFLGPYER
The note with it: NEB1, 37 C.

For series [4], the system named is T3, SspI (Sphaerotilus species).
T3 sequence: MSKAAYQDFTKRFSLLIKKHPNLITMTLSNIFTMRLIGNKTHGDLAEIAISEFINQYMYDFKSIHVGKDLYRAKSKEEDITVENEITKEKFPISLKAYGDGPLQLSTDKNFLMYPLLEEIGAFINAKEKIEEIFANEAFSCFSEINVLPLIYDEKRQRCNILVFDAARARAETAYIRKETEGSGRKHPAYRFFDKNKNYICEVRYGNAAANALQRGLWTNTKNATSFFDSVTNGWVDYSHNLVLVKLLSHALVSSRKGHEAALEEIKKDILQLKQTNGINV
The note with it: NEB1, 37 C.

For series [5], the system named is T4, SphI (Streptomyces phaeochromogenes).
T4 sequence: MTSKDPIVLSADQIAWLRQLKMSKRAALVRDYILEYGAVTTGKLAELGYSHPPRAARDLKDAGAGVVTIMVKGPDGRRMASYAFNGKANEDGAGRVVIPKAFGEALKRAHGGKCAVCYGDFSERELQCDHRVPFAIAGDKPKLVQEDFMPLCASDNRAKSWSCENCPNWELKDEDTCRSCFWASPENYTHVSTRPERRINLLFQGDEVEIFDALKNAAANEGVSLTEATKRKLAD
To be noted: NEB1, 37 C.

Series [6] concerns the target T5, BamHI-HF E163A/E167T (Bacillus amyloliquefaciens) (UniProt P23940).
T5 sequence: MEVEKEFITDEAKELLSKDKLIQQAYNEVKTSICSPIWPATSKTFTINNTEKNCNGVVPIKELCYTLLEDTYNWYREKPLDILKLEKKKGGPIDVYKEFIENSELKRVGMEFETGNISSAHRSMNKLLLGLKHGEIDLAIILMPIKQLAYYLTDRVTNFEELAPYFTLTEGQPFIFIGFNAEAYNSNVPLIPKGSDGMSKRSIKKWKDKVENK
To be noted: NEB1, 37 C.

Series [7] concerns T6, NcoI-HF A2T/R31A (Nocardia corallina).
T6 sequence: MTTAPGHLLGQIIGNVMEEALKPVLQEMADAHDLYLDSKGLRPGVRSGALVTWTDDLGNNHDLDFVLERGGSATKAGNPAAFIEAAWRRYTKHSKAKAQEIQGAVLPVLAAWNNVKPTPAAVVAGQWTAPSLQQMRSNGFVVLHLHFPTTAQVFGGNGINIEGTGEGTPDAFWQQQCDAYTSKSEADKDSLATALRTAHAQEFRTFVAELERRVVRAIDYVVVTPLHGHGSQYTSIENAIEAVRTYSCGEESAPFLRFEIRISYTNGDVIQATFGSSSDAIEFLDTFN
The note with it: NEB4, 37 C.

The subject of series [8] is T7, NcoI (Nocardia corallina).
T7 sequence: T6 sequence with T2A, A31R
To be noted: NEB1, 37 C.

Series [9] concerns T8, SbfI (Streptomyces species Bf-61).
T8 sequence: T2 sequence with A251K
To be noted: NEB1, 37 C.

In the case of lambda phage DNA, the activity (fidelity index) in [1] is 120; in [2], 250; in series [3] it was 1000; in [4], 64; in series [5] it was 64; in [6] it was greater than 4000. The activity (fidelity index) in series [7] was greater than 64000; in series [8], 120; in [9], 32.
